{
  "source": "patent US20050037444A1",
  "about": "(INTERCELL, published 2005)",
  "data": [
    {"target": "T1, soluble HLA class II molecule DRA1*0101/DRB1*0401 (human, UniProt P01903 26-216; P01911 30-227, limits assumed)", "T1 construct": "Recombinant soluble MHC class II heterodimer expressed in SC-2 cells (as in Aichinger et al., 1997); also called soluble DRA1*0101/DRB1*0401 molecules", "T1 MHC II alpha": "not shown", "T1 MHC II beta": "not shown", "test": "competition assay vs biotinylated UD4, L243 capture ELISA", "values": [
      {"binder": "MTLPLMALLALSSIVAFVLPRKRKN (synthetic peptide)", "note": "[p623-647 of Seq ID 142 (LPXTGVI)]", "binding result": "no binding (tested: 200 µM)"},
      {"binder": "KDYAYIRFSVSNGTKAVKIVSSTHFNN (synthetic peptide)", "note": "[p218-244 of Seq ID 142 (LPXTGVI)]", "binding result": "binds"},
      {"binder": "PKLRSFYSIRKSTLGVASVIVST (synthetic peptide)", "note": "[p6-28 of Seq ID 56 (LPXTGV)]", "binding result": "binds"},
      {"binder": "IKINHFCVVPQINSFKVIPPYGHNS (synthetic peptide)", "note": "[p226-251 of Seq ID 94 (EMPBP)]", "binding result": "no binding (tested: 200 µM)"},
      {"binder": "YKVVKGVKKYFSFSQSNGYKIG (synthetic peptide)", "note": "[p284-305 of Seq ID 94 (EMPBP)]", "binding result": "binds"},
      {"binder": "KEFKSFYSIRKSSLGVASVAISTL (synthetic peptide)", "note": "[p6-30 of Seq ID 142 (LPXTGVI)]", "binding result": "binds"},
      {"binder": "FMVEGQRVRTISTYAINNTRCTIF (synthetic peptide)", "note": "[p395-418 of Seq ID 142 (LPXTGVI)]", "binding result": "no binding (tested: 200 µM)"},
      {"binder": "MHVPSFQNNTTATHQN (synthetic peptide)", "note": "[p254-270 of Seq ID 94 (EMPBP)]", "binding result": "binds"},
      {"binder": "ALVFEKSVVIANVGDSRA (synthetic peptide)", "note": "[p107-124 of Seq ID 114 (POV2)]", "binding result": "no binding (tested: 200 µM)"},
      {"binder": "NNLRGYLIMPNQTLQIPNG (synthetic peptide)", "note": "[p117-136 of Seq ID 89 (ORF1hom2)]", "binding result": "no binding (tested: 200 µM)"},
      {"binder": "GESLNIIASRYGVSVDQLMAANNLRG (synthetic peptide)", "note": "[p96-121 of Seq ID 89 (ORF1hom2)]", "binding result": "no binding (tested: 200 µM)"},
      {"binder": "PSLNIKNVNYQYAVPSYSPT (synthetic peptide)", "note": "[p306-326 of Seq ID 94 (EMPBP)]", "binding result": "binds"},
      {"binder": "MNYGYGPGVVTSRTISASQA (synthetic peptide)", "note": "[p240-260 of Seq ID 74 (ORF1hom1)]", "binding result": "binds"},
      {"binder": "KLLVLTMSTLFATQIMNSNHAKASV (synthetic peptide)", "note": "[p4-29 of Seq ID 94 (EMPBP)]", "binding result": "binds"},
      {"binder": "IKLVSYDTVKDYAYIRFSVSNGTKA (synthetic peptide)", "note": "[p209-233 of Seq ID 142 (LPXTGVI)]", "binding result": "binds"},
      {"binder": "VIVSTLFLISQHQAQA (synthetic peptide)", "note": "[p24-40 of Seq ID 56 (LPXTGV)]", "binding result": "no binding (tested: 200 µM)"},
      {"binder": "QSWWGLYALLGMLALFIPKFRKESK (synthetic peptide)", "note": "[p871-896 of Seq ID 56 (LPXTGV)]", "binding result": "no binding (tested: 200 µM)"},
      {"binder": "FPYIPDKAVYNAIVKVVVANIGYEGQ (synthetic peptide)", "note": "[p620-646 of Seq ID 56 (LPXTGV)]", "binding result": "binds"},
      {"binder": "YDYKYFYSYKVVKGVKKYFSFSQS (synthetic peptide)", "note": "[p275-299 of Seq ID 94 (EMPBP)]", "binding result": "binds"},
      {"binder": "AGGIFYNQTNQQLLVLCDGMGGHK (synthetic peptide)", "note": "[p23-47 of Seq ID 114 (POV2)]", "binding result": "no binding (tested: 200 µM)"},
      {"binder": "TIFRYVEGKSLYE (synthetic peptide)", "note": "[p416-428 of Seq ID 142 (LPXTGVI)]", "binding result": "no binding (tested: 200 µM)"}
    ]}
  ]
}
